In the supplement of paper PMC9112550, “Optimization of the antimicrobial peptide Bac7 by deep mutational scanning” (BMC Biology, 2022):

Tested on: Escherichia coli TOP10
Assay: shrunken log2 fold change of peptide-encoding DNA abundance (4.5 h post-induction vs induction); higher = less antimicrobial activity (less host growth inhibition)
Details: time post-induction: 4.5 h; library: site-saturation at positions 5, 18, 19, 20
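Also: peptides expressed intracellularly from a pBAD plasmid library in pooled LB shake-flask culture, induced with 0.3% L-arabinose, DNA abundance read by NGS, three biological replicates, DESeq2 with apeglm shrinkage.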

| Sequence | shrunken log2 fold change |
| --- | --- |
| RRIRPRPPRLPRPRPRPMVFPRP | -0.166 |
| RRIRPRPPRLPRPRPRPMVHPRP | 0.137 |
| RRIRPRPPRLPRPRPRPMWMPRP | 0.000224 |
| RRIRPRPPRLPRPRPRPMYIPRP | -0.0479 |
| RRIRPRPPRLPRPRPRPNAIPRP | -0.0755 |
| RRIRPRPPRLPRPRPRPNASPRP | 0.0199 |
| RRIRPRPPRLPRPRPRPNDLPRP | -0.111 |
| RRIRPRPPRLPRPRPRPNDNPRP | -0.533 |
| RRIRPRPPRLPRPRPRPNDPPRP | -0.0507 |
| RRIRPRPPRLPRPRPRPNDSPRP | -0.442 |
| RRIRPRPPRLPRPRPRPNFEPRP | 0.275 |
| RRIRPRPPRLPRPRPRPNFVPRP | -0.0668 |
| RRIRPRPPRLPRPRPRPNGGPRP | -0.305 |
| RRIRPRPPRLPRPRPRPNGSPRP | 0.0884 |
| RRIRPRPPRLPRPRPRPNHHPRP | -0.509 |
| RRIRPRPPRLPRPRPRPNIDPRP | -0.468 |
| RRIRPRPPRLPRPRPRPNIIPRP | -0.407 |
| RRIRPRPPRLPRPRPRPNIQPRP | -0.404 |
| RRIRPRPPRLPRPRPRPNKGPRP | -0.266 |
| RRIRPRPPRLPRPRPRPNKKPRP | -0.238 |
| RRIRPRPPRLPRPRPRPNKLPRP | 0.448 |
| RRIRPRPPRLPRPRPRPNKWPRP | -0.232 |
| RRIRPRPPRLPRPRPRPNLEPRP | -0.0337 |
| RRIRPRPPRLPRPRPRPNLRPRP | 0.197 |
| RRIRPRPPRLPRPRPRPNLWPRP | -0.0151 |

| Sequence | shrunken log2 fold change |
| --- | --- |
| RRIRPRPPRLPRPRPRPNMFPRP | -0.254 |
| RRIRPRPPRLPRPRPRPNPAPRP | 0.234 |
| RRIRPRPPRLPRPRPRPNQIPRP | 0.0623 |
| RRIRPRPPRLPRPRPRPNRHPRP | -0.0624 |
| RRIRPRPPRLPRPRPRPNRIPRP | -0.132 |
| RRIRPRPPRLPRPRPRPNRWPRP | 0.106 |
| RRIRPRPPRLPRPRPRPNSRPRP | -0.1 |
| RRIRPRPPRLPRPRPRPNTNPRP | -0.329 |
| RRIRPRPPRLPRPRPRPNTPPRP | -0.153 |
| RRIRPRPPRLPRPRPRPNTYPRP | -0.67 |
| RRIRPRPPRLPRPRPRPNWAPRP | 0.176 |
| RRIRPRPPRLPRPRPRPNWFPRP | 0.283 |
| RRIRPRPPRLPRPRPRPNWRPRP | 0.392 |
| RRIRPRPPRLPRPRPRPNYFPRP | -0.435 |
| RRIRPRPPRLPRPRPRPNYHPRP | -0.607 |
| RRIRPRPPRLPRPRPRPPADPRP | 0.593 |
| RRIRPRPPRLPRPRPRPPAHPRP | 0.466 |
| RRIRPRPPRLPRPRPRPPAIPRP | 0.325 |
| RRIRPRPPRLPRPRPRPPAMPRP | 0.447 |
| RRIRPRPPRLPRPRPRPPCCPRP | -0.0155 |
| RRIRPRPPRLPRPRPRPPDHPRP | 0.182 |
| RRIRPRPPRLPRPRPRPPEEPRP | 0.885 |
| RRIRPRPPRLPRPRPRPPFCPRP | 0.317 |
| RRIRPRPPRLPRPRPRPPFEPRP | 0.596 |
| RRIRPRPPRLPRPRPRPPFFPRP | 0.415 |

| Sequence | shrunken log2 fold change |
| --- | --- |
| RRIRPRPPRLPRPRPRPPGCPRP | 0.264 |
| RRIRPRPPRLPRPRPRPPICPRP | -0.474 |
| RRIRPRPPRLPRPRPRPPIGPRP | 0.287 |
| RRIRPRPPRLPRPRPRPPLLPRP | 0.081 |
| RRIRPRPPRLPRPRPRPPMDPRP | 0.126 |
| RRIRPRPPRLPRPRPRPPNFPRP | 0.0501 |
| RRIRPRPPRLPRPRPRPPNHPRP | 0.0555 |
| RRIRPRPPRLPRPRPRPPNMPRP | -0.0209 |
| RRIRPRPPRLPRPRPRPPPCPRP | 0.384 |
| RRIRPRPPRLPRPRPRPPPQPRP | 0.963 |
| RRIRPRPPRLPRPRPRPPPSPRP | 1.12 |
| RRIRPRPPRLPRPRPRPPQMPRP | 0.531 |
| RRIRPRPPRLPRPRPRPPSYPRP | -0.147 |
| RRIRPRPPRLPRPRPRPPTNPRP | 0.222 |
| RRIRPRPPRLPRPRPRPPYMPRP | -0.288 |
| RRIRPRPPRLPRPRPRPQAQPRP | 0.143 |
| RRIRPRPPRLPRPRPRPQCHPRP | -0.457 |
| RRIRPRPPRLPRPRPRPQDMPRP | -0.39 |
| RRIRPRPPRLPRPRPRPQDVPRP | -0.373 |
| RRIRPRPPRLPRPRPRPQEGPRP | -0.259 |
| RRIRPRPPRLPRPRPRPQFIPRP | -0.653 |
| RRIRPRPPRLPRPRPRPQFMPRP | -0.259 |
| RRIRPRPPRLPRPRPRPQGAPRP | 0.0965 |
| RRIRPRPPRLPRPRPRPQGSPRP | 0.0552 |
| RRIRPRPPRLPRPRPRPQKWPRP | 0.17 |

| Sequence | shrunken log2 fold change |
| --- | --- |
| RRIRPRPPRLPRPRPRPQMGPRP | -0.0457 |
| RRIRPRPPRLPRPRPRPQMKPRP | -0.151 |
| RRIRPRPPRLPRPRPRPQMPPRP | -0.451 |
| RRIRPRPPRLPRPRPRPQMRPRP | 0.806 |
| RRIRPRPPRLPRPRPRPQNWPRP | 0.0202 |
| RRIRPRPPRLPRPRPRPQPGPRP | 0.204 |
| RRIRPRPPRLPRPRPRPQQSPRP | -0.236 |
| RRIRPRPPRLPRPRPRPQRDPRP | 0.116 |
| RRIRPRPPRLPRPRPRPQRWPRP | 0.156 |
| RRIRPRPPRLPRPRPRPQTMPRP | 0.235 |
| RRIRPRPPRLPRPRPRPQTTPRP | -0.161 |
| RRIRPRPPRLPRPRPRPQVHPRP | -0.0018 |
| RRIRPRPPRLPRPRPRPQVIPRP | -0.0452 |
| RRIRPRPPRLPRPRPRPQWDPRP | -0.355 |
| RRIRPRPPRLPRPRPRPQWLPRP | -0.0256 |
| RRIRPRPPRLPRPRPRPQWNPRP | 0.36 |
| RRIRPRPPRLPRPRPRPQWWPRP | 0.111 |
| RRIRPRPPRLPRPRPRPQYDPRP | -0.638 |
| RRIRPRPPRLPRPRPRPRAEPRP | 0.526 |
| RRIRPRPPRLPRPRPRPRARPRP | 0.58 |
| RRIRPRPPRLPRPRPRPRCDPRP | 0.0398 |
| RRIRPRPPRLPRPRPRPRDAPRP | 0.635 |
| RRIRPRPPRLPRPRPRPRDYPRP | 0.144 |
| RRIRPRPPRLPRPRPRPRFCPRP | 0.225 |
| RRIRPRPPRLPRPRPRPRFKPRP | 0.166 |

| Sequence | shrunken log2 fold change |
| --- | --- |
| RRIRPRPPRLPRPRPRPRGNPRP | -0.16 |
| RRIRPRPPRLPRPRPRPRGYPRP | 0.523 |
| RRIRPRPPRLPRPRPRPRIIPRP | -0.18 |
| RRIRPRPPRLPRPRPRPRLFPRP | 1.92 |
| RRIRPRPPRLPRPRPRPRNVPRP | 0.0758 |
| RRIRPRPPRLPRPRPRPRPYPRP | 0.173 |
| RRIRPRPPRLPRPRPRPRQDPRP | 0.351 |
| RRIRPRPPRLPRPRPRPRQWPRP | 0.485 |
| RRIRPRPPRLPRPRPRPRRIPRP | 0.252 |
| RRIRPRPPRLPRPRPRPRRSPRP | 0.124 |
| RRIRPRPPRLPRPRPRPRRTPRP | 0.507 |
| RRIRPRPPRLPRPRPRPRSAPRP | 0.497 |
| RRIRPRPPRLPRPRPRPRSMPRP | 0.0858 |
| RRIRPRPPRLPRPRPRPRTSPRP | 0.59 |
| RRIRPRPPRLPRPRPRPRVIPRP | 0.033 |
| RRIRPRPPRLPRPRPRPRVPPRP | 0.342 |
| RRIRPRPPRLPRPRPRPRWNPRP | 0.115 |
| RRIRPRPPRLPRPRPRPSCGPRP | 0.137 |
| RRIRPRPPRLPRPRPRPSDHPRP | -0.605 |
| RRIRPRPPRLPRPRPRPSFPPRP | -0.0649 |
| RRIRPRPPRLPRPRPRPSFWPRP | 0.129 |
| RRIRPRPPRLPRPRPRPSHGPRP | 0.108 |
| RRIRPRPPRLPRPRPRPSILPRP | -0.0331 |
| RRIRPRPPRLPRPRPRPSKPPRP | 0.0728 |
| RRIRPRPPRLPRPRPRPSKRPRP | -0.00797 |

| Sequence | shrunken log2 fold change |
| --- | --- |
| RRIRPRPPRLPRPRPRPSLEPRP | 0.0508 |
| RRIRPRPPRLPRPRPRPSMQPRP | -0.29 |
| RRIRPRPPRLPRPRPRPSNFPRP | -0.168 |
| RRIRPRPPRLPRPRPRPSPFPRP | -0.0752 |
| RRIRPRPPRLPRPRPRPSPIPRP | 0.335 |
| RRIRPRPPRLPRPRPRPSPLPRP | 0.0443 |
| RRIRPRPPRLPRPRPRPSPVPRP | 0.0207 |
| RRIRPRPPRLPRPRPRPSQKPRP | 0.188 |
| RRIRPRPPRLPRPRPRPSREPRP | 0.113 |
| RRIRPRPPRLPRPRPRPSRIPRP | -0.0841 |
| RRIRPRPPRLPRPRPRPSSAPRP | 0.0846 |
| RRIRPRPPRLPRPRPRPSTCPRP | -0.11 |
| RRIRPRPPRLPRPRPRPSTKPRP | -0.0696 |
| RRIRPRPPRLPRPRPRPSTTPRP | -0.326 |
| RRIRPRPPRLPRPRPRPSVFPRP | -0.0552 |
| RRIRPRPPRLPRPRPRPSVLPRP | 0.0488 |
| RRIRPRPPRLPRPRPRPSWLPRP | -0.0766 |
| RRIRPRPPRLPRPRPRPSYCPRP | -0.387 |
| RRIRPRPPRLPRPRPRPSYLPRP | -0.562 |
| RRIRPRPPRLPRPRPRPTAMPRP | 0.0577 |
| RRIRPRPPRLPRPRPRPTATPRP | 0.425 |
| RRIRPRPPRLPRPRPRPTCVPRP | -0.136 |
| RRIRPRPPRLPRPRPRPTDCPRP | 0.165 |
| RRIRPRPPRLPRPRPRPTEDPRP | -0.18 |
| RRIRPRPPRLPRPRPRPTGNPRP | 0.141 |
